Source: patent US20110166062A1 (INDIANA UNIVERSITY RESEARCH AND TECHNOLOGY, published 2011)
Bridges are numbered along the chain shown (N, C = ends). Primed or numbered codes have the meaning given here. Where no end group is shown, it is not given here. Side-chain parts run from the residue outwards. [ ]: non-standard residue; d: D form. Cys(PEG 40 kDa) = Cys with a 40 kDa PEG covalently attached to its side chain (alpha amino acetyl-capped, Ac); PEG 40 kDa″ = polyethylene glycol of 40 kDa covalently attached to the side chain; PEG = not defined here; Aib = CC(C)(N)C(=O)O

B1: mt-241 (peptide)
peptide: Y[Aib]QGTFTSDYSIYLD[Aib]QAAKEFVNWLLAGGPSSGAPPPSC-NH2
modifications: N-terminus assumed
SMILES: CC[C@H](C)[C@H](NC(=O)[C@H](CO)NC(=O)[C@H](Cc1ccc(O)cc1)NC(=O)[C@H](CC(=O)O)NC(=O)[C@H](CO)NC(=O)[C@@H](NC(=O)[C@H](Cc1ccccc1)NC(=O)[C@@H](NC(=O)CNC(=O)[C@H](CCC(N)=O)NC(=O)C(C)(C)NC(=O)[C@@H](N)Cc1ccc(O)cc1)[C@@H](C)O)[C@@H](C)O)C(=O)N[C@@H](Cc1ccc(O)cc1)C(=O)N[C@@H](CC(C)C)C(=O)N[C@@H](CC(=O)O)C(=O)NC(C)(C)C(=O)N[C@@H](CCC(N)=O)C(=O)N[C@@H](C)C(=O)N[C@@H](C)C(=O)N[C@@H](CCCCN)C(=O)N[C@@H](CCC(=O)O)C(=O)N[C@@H](Cc1ccccc1)C(=O)N[C@H](C(=O)N[C@@H](CC(N)=O)C(=O)N[C@@H](Cc1c[nH]c2ccccc12)C(=O)N[C@@H](CC(C)C)C(=O)N[C@@H](CC(C)C)C(=O)N[C@@H](C)C(=O)NCC(=O)NCC(=O)N1CCC[C@H]1C(=O)N[C@@H](CO)C(=O)N[C@@H](CO)C(=O)NCC(=O)N[C@@H](C)C(=O)N1CCC[C@H]1C(=O)N1CCC[C@H]1C(=O)N1CCC[C@H]1C(=O)N[C@@H](CO)C(=O)N[C@@H](CS)C(N)=O)C(C)C
B2: mt-252 (peptide)
peptide: Y[Aib]QGTFTSDYSIYLDKQAA[Aib]EFVNWLLAGGPSSGAPPPSC-NH2
modifications: N-terminus assumed
SMILES: CC[C@H](C)[C@H](NC(=O)[C@H](CO)NC(=O)[C@H](Cc1ccc(O)cc1)NC(=O)[C@H](CC(=O)O)NC(=O)[C@H](CO)NC(=O)[C@@H](NC(=O)[C@H](Cc1ccccc1)NC(=O)[C@@H](NC(=O)CNC(=O)[C@H](CCC(N)=O)NC(=O)C(C)(C)NC(=O)[C@@H](N)Cc1ccc(O)cc1)[C@@H](C)O)[C@@H](C)O)C(=O)N[C@@H](Cc1ccc(O)cc1)C(=O)N[C@@H](CC(C)C)C(=O)N[C@@H](CC(=O)O)C(=O)N[C@@H](CCCCN)C(=O)N[C@@H](CCC(N)=O)C(=O)N[C@@H](C)C(=O)N[C@@H](C)C(=O)NC(C)(C)C(=O)N[C@@H](CCC(=O)O)C(=O)N[C@@H](Cc1ccccc1)C(=O)N[C@H](C(=O)N[C@@H](CC(N)=O)C(=O)N[C@@H](Cc1c[nH]c2ccccc12)C(=O)N[C@@H](CC(C)C)C(=O)N[C@@H](CC(C)C)C(=O)N[C@@H](C)C(=O)NCC(=O)NCC(=O)N1CCC[C@H]1C(=O)N[C@@H](CO)C(=O)N[C@@H](CO)C(=O)NCC(=O)N[C@@H](C)C(=O)N1CCC[C@H]1C(=O)N1CCC[C@H]1C(=O)N1CCC[C@H]1C(=O)N[C@@H](CO)C(=O)N[C@@H](CS)C(N)=O)C(C)C
B3: mt-250 (peptide)
peptide: Y[Aib]QGTFTSDYSIYLD[Aib]QAA[Aib]EFVNWLLAGGPSSGAPPPSC-NH2
modifications: N-terminus assumed
SMILES: CC[C@H](C)[C@H](NC(=O)[C@H](CO)NC(=O)[C@H](Cc1ccc(O)cc1)NC(=O)[C@H](CC(=O)O)NC(=O)[C@H](CO)NC(=O)[C@@H](NC(=O)[C@H](Cc1ccccc1)NC(=O)[C@@H](NC(=O)CNC(=O)[C@H](CCC(N)=O)NC(=O)C(C)(C)NC(=O)[C@@H](N)Cc1ccc(O)cc1)[C@@H](C)O)[C@@H](C)O)C(=O)N[C@@H](Cc1ccc(O)cc1)C(=O)N[C@@H](CC(C)C)C(=O)N[C@@H](CC(=O)O)C(=O)NC(C)(C)C(=O)N[C@@H](CCC(N)=O)C(=O)N[C@@H](C)C(=O)N[C@@H](C)C(=O)NC(C)(C)C(=O)N[C@@H](CCC(=O)O)C(=O)N[C@@H](Cc1ccccc1)C(=O)N[C@H](C(=O)N[C@@H](CC(N)=O)C(=O)N[C@@H](Cc1c[nH]c2ccccc12)C(=O)N[C@@H](CC(C)C)C(=O)N[C@@H](CC(C)C)C(=O)N[C@@H](C)C(=O)NCC(=O)NCC(=O)N1CCC[C@H]1C(=O)N[C@@H](CO)C(=O)N[C@@H](CO)C(=O)NCC(=O)N[C@@H](C)C(=O)N1CCC[C@H]1C(=O)N1CCC[C@H]1C(=O)N1CCC[C@H]1C(=O)N[C@@H](CO)C(=O)N[C@@H](CS)C(N)=O)C(C)C
B4: mt-251 (peptide)
peptide: Y[Aib]QGTFTSDYSIYLDEQAA[Aib]EFVNWLLAGGPSSGAPPPSC-NH2
modifications: N-terminus assumed
SMILES: CC[C@H](C)[C@H](NC(=O)[C@H](CO)NC(=O)[C@H](Cc1ccc(O)cc1)NC(=O)[C@H](CC(=O)O)NC(=O)[C@H](CO)NC(=O)[C@@H](NC(=O)[C@H](Cc1ccccc1)NC(=O)[C@@H](NC(=O)CNC(=O)[C@H](CCC(N)=O)NC(=O)C(C)(C)NC(=O)[C@@H](N)Cc1ccc(O)cc1)[C@@H](C)O)[C@@H](C)O)C(=O)N[C@@H](Cc1ccc(O)cc1)C(=O)N[C@@H](CC(C)C)C(=O)N[C@@H](CC(=O)O)C(=O)N[C@@H](CCC(=O)O)C(=O)N[C@@H](CCC(N)=O)C(=O)N[C@@H](C)C(=O)N[C@@H](C)C(=O)NC(C)(C)C(=O)N[C@@H](CCC(=O)O)C(=O)N[C@@H](Cc1ccccc1)C(=O)N[C@H](C(=O)N[C@@H](CC(N)=O)C(=O)N[C@@H](Cc1c[nH]c2ccccc12)C(=O)N[C@@H](CC(C)C)C(=O)N[C@@H](CC(C)C)C(=O)N[C@@H](C)C(=O)NCC(=O)NCC(=O)N1CCC[C@H]1C(=O)N[C@@H](CO)C(=O)N[C@@H](CO)C(=O)NCC(=O)N[C@@H](C)C(=O)N1CCC[C@H]1C(=O)N1CCC[C@H]1C(=O)N1CCC[C@H]1C(=O)N[C@@H](CO)C(=O)N[C@@H](CS)C(N)=O)C(C)C
B5: mt-258 (peptide)
peptide: Y[Aib]QGTFTSDYSIYLDEQAA[Aib]EFVCWLLAG-NH2
modifications: N-terminus assumed
SMILES: CC[C@H](C)[C@H](NC(=O)[C@H](CO)NC(=O)[C@H](Cc1ccc(O)cc1)NC(=O)[C@H](CC(=O)O)NC(=O)[C@H](CO)NC(=O)[C@@H](NC(=O)[C@H](Cc1ccccc1)NC(=O)[C@@H](NC(=O)CNC(=O)[C@H](CCC(N)=O)NC(=O)C(C)(C)NC(=O)[C@@H](N)Cc1ccc(O)cc1)[C@@H](C)O)[C@@H](C)O)C(=O)N[C@@H](Cc1ccc(O)cc1)C(=O)N[C@@H](CC(C)C)C(=O)N[C@@H](CC(=O)O)C(=O)N[C@@H](CCC(=O)O)C(=O)N[C@@H](CCC(N)=O)C(=O)N[C@@H](C)C(=O)N[C@@H](C)C(=O)NC(C)(C)C(=O)N[C@@H](CCC(=O)O)C(=O)N[C@@H](Cc1ccccc1)C(=O)N[C@H](C(=O)N[C@@H](CS)C(=O)N[C@@H](Cc1c[nH]c2ccccc12)C(=O)N[C@@H](CC(C)C)C(=O)N[C@@H](CC(C)C)C(=O)N[C@@H](C)C(=O)NCC(N)=O)C(C)C
B6: mt-294 (peptide)
peptide: Y[Aib]EGTFTSDYSIYLDEQAAKEFVNWLLAGGPSSGAPPPSC(PEG)-NH2
modifications: lactam 16-20; reading uncertain; also: PEG on Cys40 via thioether from haloacetyl

molecular target: GLP-1 receptor (UniProt P43220 24-463, limits assumed); test: cell-based or functional assay

Binder | EC50 [nM] | relative activity [%]
Y[Aib]QGTFTSDYSIYLDKQAA[Aib]EFVNWLLAGGPSSGAPPPSC(PEG 40 kDa″)-NH2 [mt-255] | 0.018 | 117
B1 | 0.023 | 130
B2 | 0.018 | 117
B3 | 0.033 | 63.6
Y[Aib]QGTFTSDYSIYLD[Aib]QAAKEFVNWLLAGGPSSGAPPPSC(PEG 40 kDa″)-NH2 [mt-248] | 0.103 | 9.71
B4 | 0.015 | 140
B5 | 0.0202 | 58.9

molecular target: glucagon receptor (UniProt P47871 26-477, limits assumed); test: cell-based or functional assay
Target sequence in this assay (P47871 26-477 limits assumed): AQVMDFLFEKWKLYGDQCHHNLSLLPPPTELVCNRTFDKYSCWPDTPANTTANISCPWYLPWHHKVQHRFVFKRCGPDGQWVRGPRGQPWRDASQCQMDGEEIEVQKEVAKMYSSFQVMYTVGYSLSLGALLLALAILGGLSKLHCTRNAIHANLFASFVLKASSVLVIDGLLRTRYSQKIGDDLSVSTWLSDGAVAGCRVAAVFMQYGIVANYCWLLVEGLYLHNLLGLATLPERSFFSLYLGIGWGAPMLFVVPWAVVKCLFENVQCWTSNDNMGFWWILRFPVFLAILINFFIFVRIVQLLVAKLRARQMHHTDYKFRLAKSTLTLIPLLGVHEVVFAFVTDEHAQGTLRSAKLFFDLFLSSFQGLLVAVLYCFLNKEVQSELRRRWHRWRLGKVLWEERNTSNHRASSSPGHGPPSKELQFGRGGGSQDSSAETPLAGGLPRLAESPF

Binder | EC50 [nM] | relative activity [%]
Y[Aib]QGTFTSDYSIYLDKQAA[Aib]EFVNWLLAGGPSSGAPPPSC(PEG 40 kDa″)-NH2 [mt-255] | 5.46 | 2.45
B1 | 2.84 | 3.73
B2 | 0.319 | 13.2
B3 | 0.667 | 6.3
Y[Aib]QGTFTSDYSIYLD[Aib]QAAKEFVNWLLAGGPSSGAPPPSC(PEG 40 kDa″)-NH2 [mt-248] | 16.7 | 0.37
B4 | 2.76 | 1.52
B5 | 0.487 | 14.1

molecular target: T1, GIP receptor (UniProt P48546 22-466); test: cell-based or functional assay
T1 sequence (looked up): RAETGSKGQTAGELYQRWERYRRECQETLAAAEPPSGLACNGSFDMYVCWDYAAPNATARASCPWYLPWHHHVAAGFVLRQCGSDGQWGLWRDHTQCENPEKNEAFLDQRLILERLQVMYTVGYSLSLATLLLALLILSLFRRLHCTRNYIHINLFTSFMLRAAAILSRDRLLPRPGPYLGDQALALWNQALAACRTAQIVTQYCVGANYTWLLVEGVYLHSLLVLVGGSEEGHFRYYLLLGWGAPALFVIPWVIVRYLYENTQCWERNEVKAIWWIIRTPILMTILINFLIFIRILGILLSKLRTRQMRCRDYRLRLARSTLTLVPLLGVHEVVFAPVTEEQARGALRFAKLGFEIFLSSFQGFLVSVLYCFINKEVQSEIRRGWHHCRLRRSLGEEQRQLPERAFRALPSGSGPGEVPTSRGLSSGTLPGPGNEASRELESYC

Binder | EC50 [nM] | relative activity [%]
Y[Aib]QGTFTSDYSIYLDKQAA[Aib]EFVNWLLAGGPSSGAPPPSC(PEG 40 kDa″)-NH2 [mt-255] | 0.013 | 146
B1 | 0.252 | 4.37
B2 | 0.013 | 146
B3 | 0.062 | 30.6
Y[Aib]QGTFTSDYSIYLD[Aib]QAAKEFVNWLLAGGPSSGAPPPSC(PEG 40 kDa″)-NH2 [mt-248] | 3.23 | 0.53
B4 | 0.033 | 57.6
B5 | 0.057 | 16.8

molecular target: T2, GIP receptor (UniProt P48546 22-466); test: cell-based or functional assay
T2 sequence (looked up): T1 sequence (looked up)

Binder | EC50, nM; GIP Receptor [nM] | relative activity; GIP Receptor [%]
Y[Aib]QGTFTSDYSIYLDEQAAKEFVNWLLAGGPSSGAPPPSK([Ala-Cys(PEG 40 kDa)-Ac])-NH2 (lactam 16-20) [mt-225] | 1.9 | –
B6 | 0.373 | 2.95

molecular target: GLP-1 receptor (UniProt P43220 24-463, limits assumed); test: cell-based or functional assay; remark: another data set of the same source

Binder | EC50, nM; GLP-1 Receptor [nM] | relative activity; GLP-1 Receptor [%]
Y[Aib]QGTFTSDYSIYLDEQAAKEFVNWLLAGGPSSGAPPPSK([Ala-Cys(PEG 40 kDa)-Ac])-NH2 (lactam 16-20) [mt-225] | 0.098 | –
B6 | 0.0608 | 12.7

molecular target: glucagon receptor (UniProt P47871 26-477, limits assumed); test: cell-based or functional assay; remark: another data set of the same source
Target sequence in this assay (P47871 26-477 limits assumed): as the sequence (P47871 26-477 limits assumed) above

Binder | EC50, nM; Glucagon Receptor [nM] | relative activity; Glucagon Receptor [%]
Y[Aib]QGTFTSDYSIYLDEQAAKEFVNWLLAGGPSSGAPPPSK([Ala-Cys(PEG 40 kDa)-Ac])-NH2 (lactam 16-20) [mt-225] | 2.71 | –
B6 | 230 | 0.01
